According to patent US20240174744A1 (SCIRHOM, published 2024):

T1: hiR2-FL-L539A-T7 (human iRhom2 full length L539A, 3 x T7 tag) (human, UniProt Q6PJF5 1-856)
T1 sequence: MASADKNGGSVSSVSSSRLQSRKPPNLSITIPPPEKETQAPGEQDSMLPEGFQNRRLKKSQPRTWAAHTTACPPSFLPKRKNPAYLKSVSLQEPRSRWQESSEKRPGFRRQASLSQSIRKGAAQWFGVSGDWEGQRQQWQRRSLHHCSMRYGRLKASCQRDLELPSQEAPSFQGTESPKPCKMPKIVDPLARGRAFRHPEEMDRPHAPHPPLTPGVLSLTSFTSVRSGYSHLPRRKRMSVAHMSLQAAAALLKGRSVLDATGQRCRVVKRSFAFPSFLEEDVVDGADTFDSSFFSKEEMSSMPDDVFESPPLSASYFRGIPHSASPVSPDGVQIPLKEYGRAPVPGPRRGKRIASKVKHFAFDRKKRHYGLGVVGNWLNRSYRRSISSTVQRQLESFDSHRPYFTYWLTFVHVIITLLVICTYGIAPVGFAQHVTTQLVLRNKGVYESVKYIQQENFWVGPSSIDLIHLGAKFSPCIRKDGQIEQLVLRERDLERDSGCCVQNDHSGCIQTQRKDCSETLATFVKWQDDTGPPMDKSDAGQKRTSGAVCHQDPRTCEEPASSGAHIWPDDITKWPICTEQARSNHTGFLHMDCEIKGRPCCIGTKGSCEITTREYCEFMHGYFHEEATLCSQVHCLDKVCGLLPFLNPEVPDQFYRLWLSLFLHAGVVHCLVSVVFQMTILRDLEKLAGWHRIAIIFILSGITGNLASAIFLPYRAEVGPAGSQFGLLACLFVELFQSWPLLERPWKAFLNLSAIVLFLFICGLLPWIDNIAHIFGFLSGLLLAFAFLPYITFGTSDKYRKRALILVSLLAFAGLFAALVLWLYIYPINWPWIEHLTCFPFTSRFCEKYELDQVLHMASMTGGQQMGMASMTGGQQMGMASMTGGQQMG


Target: T1, hiR2-FL-L539A-T7 (human iRhom2 full …)
Test: FACS on cells of the row L539A, vs human iR2 wild type = 100%
Text: In brief, immortalized MEF-DKO-hiR2-FL-G498A-T7, MEF-DKO-hiR2-FL-Q502R-T7, MEF-DKO-hiR2-FL-I509V-T7, MEF-DKO-hiR2-FL-Q512S-T7, MEF-DKO-hiR2-FL-R513E-T7, MEF-DKO-hiR2-FL-K514E-T7, MEF-DKO-hiR2-FL-D515E-T7, MEF-DKO-hiR2-FL-E518S-T7, MEF-DKO-hiR2-FL-T522V-T7, MEF-DKO-hiR2-FL-F523W-T7, MEF-DKO-hiR2-FL-Q527P-T7, MEF-DKO-hiR2-FL-D528I-T7, MEF-DKO-hiR2-FL-D529H-T7, MEF-DKO-hiR2-FL-T530P-T7, MEF-DKO-hiR2-FL-G531S-T7, MEF-DKO-hiR2-FL-P532A-T7, MEF-DKO-hiR2-FL-M534-T7, MEF-DKO-hiR2-FL-D535-T7, MEF-DKO-hiR2-FL-K536-T7, MEF-DKO-hiR2-FL-S537E-T7, MEF-DKO-hiR2-FL-D538L-T7, MEF-DKO-hiR2-FL-L539A-T7, MEF-DKO-hiR2-FL-Q541H-T7, MEF-DKO-hiR2-FL-T544Q-T7, MEF-DKO-hiR2-FL-S545F-T7, MEF-DKO-hiR2-FL-A547S-T7, MEF-DKO-hiR2-FL-T555V-T7, MEF-DKO-hiR2-FL-E557D-T7, MEF-DKO-hiR2-FL-A560S-T7 and MEF-DKO-hiR2-FL-S562E-T7 cells were harvested with 10 mM EDTA in PBS, washed and resuspended in FACS buffer (PBS, 3% FBS, 0.05% sodium azide), and seeded in Nunc U-bottom 96-well plates (Thermo Fisher Scientific, USA) at approximately 3×10⁵ cells per well. To pellet cells and remove supernatants, the plates were centrifuged at 1,500 rpm and 4° C. for 3 minutes. For primary staining, cells were resuspended in 100 μl per well of either FACS buffer alone (controls) or the purified antibodies 3, 5, 16, 22, 34, 42, 43, 44, 48, and 50 of the present disclosure at 3 μg/ml in FACS buffer and incubated on ice for 1 hour. Afterwards, plates were centrifuged at 1,500 rpm and 4° C. for 3 minutes and washed twice with 200 μl per well of FACS buffer. For secondary staining, cells were spun down and resuspended in 100 μl per well of PE-conjugated goat anti-mouse IgG F(ab′)2 detection fragment (Dianova, Germany) diluted 1:100 in FACS buffer. Protected from light, the cell suspensions were incubated on ice for 1 hour. Plates were then centrifuged at 1,500 rpm and 4° C. for 3 minutes and washed three times with 200 μl per well of FACS buffer. Finally, cells were resuspended in 150 μl per well of FACS buffer and analyzed using a BD Accuri™ C6 Plus flow cytometer (Becton Dickinson, Germany).

Binder	grade of loss of binding vs wild type
antibody 3 (antibody, V domains shown, Mouse IgG, kappa light chain; also called clone #3; purified antibody 3) VH: QVTLKESGPGILQPSQTLSLTCSFSGFSLTTFAMGIGWVRQPSGKGLEWLAHIWWDGEKYNNPVLKSRLTISKDTSKNQVFLRIANVDTPDTATYYCARISSIYYIIDNWGQGTSVTVSS VL: DIVLTQSPATLSVTPGHSVSLSCRASQSISNNLHWYQKKSHESPRLLIKYVSQSISGIPSRFSGSGSGTDFTLSINSVETEDFGMYFCQQSYNWPLTFGAGTKLELK	3 grade (3 => 95% loss of binding vs wild type)
antibody 34 (antibody, V domains shown, Mouse IgG, kappa light chain; also called clone #34; m34) VH: QVTLKESGPGILQPSQTLSLTCSFSGFSLSTFSLGVGWIRQSSGKGLEWLAHIWWDDEKYYNPALKSRLTISKDTSKNQVFLKIANVDAADTATYYCARAYYSKSYYALDYWGQGTSVTVSS VL: DIQMTQSPSSLSASLGERVSLTCRASQEISGYLSWLQQKPDGTIKRLIYAASTLDSGVPKRFSGSRSGSDYSLAISSLESEDFADYYCLQYANFPFTFGSGTKLEIK	3 grade (3 => 95% loss of binding vs wild type)
antibody 43 (antibody, V domains shown, Mouse IgG, kappa light chain; also called clone #43) VH: QVALKESGPGILQPSQTLSLTCSFSGFSLSTFGMGVGWIRQSSGKGLEWLANIWWDDDKYYNPALKSRLTISKDASKNQAFLKIANVDTADTATYYCARIGNYGSNYWYFDVWGTGTTVTVSS VL: QIVLTQSPAIMSASPGERVTMTCSANSRISYMYWYQQKPGSSPRLLIYDTSNLASGVPVRFSGSGSGTSYSLTISRMEAEDAATYNCQQWSSYPLTFGAGTKLELK	3 grade (3 => 95% loss of binding vs wild type)
antibody 44 (antibody, V domains shown, Mouse IgG, kappa light chain; also called clone #44; m44) VH: QVTLKESGPGILQPSQTLSLTCSFSGFSLSTFGMGVGWIRQPSEKGLEWLAHIWWDDDKYYNPALKSRLTISKDTSKNQIFLKITNVDTAETATYYCSRIGNYGSNYWYFDVWGTGTTVTVSS VL: QIVLTQSPAVMSASPGEKVTMTCTASSSVYYMYWYQQTPGSSPRLLIYDTSNLASGVPVRFSGSGSGTSYSLTISRMEAEDAATYYCQQWNTYPLTFGAGTKLELK	3 grade (3 => 95% loss of binding vs wild type)
antibody 5 (antibody, V domains shown, Mouse IgG, kappa light chain; also called clone #5; purified antibody 5) VH: QVTLKESGPGILQPSQTLSLTCSFSGFSLSTFGMGVGWIRQPSGKGLEWLAHIWWDDEKYYNSALKSRLTISKATSKNQAFLKIANVDTADTATYYCARISNYGSNYWYFNVWGTGTTVTVSS VL: QVVLTQSPALMSASPGEKVTMTCSAGSSVSCMYWYQQKPGSSPRVLIYDTSNLASGVPARFTGSGSGTSYSLTISRMEAEDAASYYCQQWNSYPLTFGAGTKLELK	3 grade (3 => 95% loss of binding vs wild type)
antibody 42 (antibody, V domains shown, Mouse IgG, kappa light chain; also called clone #42; m42) VH: QVTLKESGPGILQPSQTLSLTCSLSGFSLSTFGRGVGWIRQPSGKGLEWLAHIWWDDEKYYNPALKSRLTISKDTSKNQVFLRIANVDTADTATYYCARIQNYGSNYWYFDVWGTGTTVTVSS VL: LIVLTQSPAIMSASPGEKVTMTCGATSRISYMFWYQQKPGSSPRVLIYDTSNLASGVPVRFSGSGSGTSYSLTISRVEAEDVATYYCQQWNSYPLTFGAGTKLELK	3 grade (3 => 95% loss of binding vs wild type)
antibody 22 (antibody, V domains shown, Mouse IgG, kappa light chain; also called clone #22; m22) VH: QVTLKESGPGILQPSQTLSLTCSFSGFSLSTFGMGVGWIRQPSGKGLEWLAHIWWDDEKYYNSALKSRLTISKATSKNQVFLKIANVDTADTATYYCARISNYGSNYWYFNVWGTGTTVTVSS VL: QVVLTQSPALMSASPGEKVTMTCSAGSSVSYMYWYQQKPGSSPRVLIYDTSNLASGVPARFTGSGSGTSYSLTISRMEAEDAATYYCQQWNSYPLTFGAGTKLELK	3 grade (3 => 95% loss of binding vs wild type)
